Key:
Conditions in all cases: glycan lost; control: wild-type CD133
[1] = immunofluorescence with ER dye, HEK293T
[2] = anti-CD133 western blot, HEK293T lysates
[3] = surface flow cytometry, HEK293T and HepG2

B1: CD133 (prominin-1): N206Q (protein)
parent chain: MALVLGSLLLLGLCGNSFSGGQPSSTDAPKAWNYELPATNYETQDSHKAGPIGILFELVHIFLYVVQPRDFPEDTLRKFLQKAYESKIDYDKPETVILGLKIVYYEAGIILCCVLGLLFIILMPLVGYFFCMCRCCNKCGGEMHQRQKENGPFLRKCFAISLLVICIIISIGIFYGFVANHQVRTRIKRSRKLADSNFKDLRTLLNETPEQIKYILAQYNTTKDKAFTDLNSINSVLGGGILDRLRPNIIPVLDEIKSMATAIKETKEALENMNSTLKSLHQQSTQLSSSLTSVKTSLRSSLNDPLCLVHPSSETCNSIRLSLSQLNSNPELRQLPPVDAELDNVNNVLRTDLDGLVQQGYQSLNDIPDRVQRQTTTVVAGIKRVLNSIGSDIDNVTQRLPIQDILSAFSVYVNNTESYIHRNLPTLEEYDSYWWLGGLVICSLLTLIVIFYYLGLLCGVCGYDRHATPTTRGCVSNTGGVFLMVGVGLSFLFCWILMIIVVLTFVFGANVEKLICEPYTSKELFRVLDTPYLLNEDWEYYLSGKLFNKSKMKLTFEQVYSDCKKNRGTYGTLHLQNSFNISEHLNINEHTGSISSELESLKVNLNIFLLGAAGRKNLQDFAACGIDRMNYDSYLAQTGKSPAGVNLLSFAYDLEAKANSLPPGNLRNSLKRDAQTIKTIHQQRVLPIEQSLSTLYQSVKILQRTGNGLLERVTRILASLDFAQNFITNNTSSVIIEETKKYGRTIIGYFEHYLQWIEFSISEKVASCKPVATALDTAVDVFLCSYIIDPLNLFWFGIGKATVFLLPALIFAVKLAKYYRRMDSEDVYDDVETIPMKNMENGNNGYHKDHVYGIHNPVMTSPSQH
no change: localisation_or_trafficking [1] | expression_or_secretion [2] | localisation_or_trafficking [3]

B2: CD133 (prominin-1): N580Q (protein)
parent chain: MALVLGSLLLLGLCGNSFSGGQPSSTDAPKAWNYELPATNYETQDSHKAGPIGILFELVHIFLYVVQPRDFPEDTLRKFLQKAYESKIDYDKPETVILGLKIVYYEAGIILCCVLGLLFIILMPLVGYFFCMCRCCNKCGGEMHQRQKENGPFLRKCFAISLLVICIIISIGIFYGFVANHQVRTRIKRSRKLADSNFKDLRTLLNETPEQIKYILAQYNTTKDKAFTDLNSINSVLGGGILDRLRPNIIPVLDEIKSMATAIKETKEALENMNSTLKSLHQQSTQLSSSLTSVKTSLRSSLNDPLCLVHPSSETCNSIRLSLSQLNSNPELRQLPPVDAELDNVNNVLRTDLDGLVQQGYQSLNDIPDRVQRQTTTVVAGIKRVLNSIGSDIDNVTQRLPIQDILSAFSVYVNNTESYIHRNLPTLEEYDSYWWLGGLVICSLLTLIVIFYYLGLLCGVCGYDRHATPTTRGCVSNTGGVFLMVGVGLSFLFCWILMIIVVLTFVFGANVEKLICEPYTSKELFRVLDTPYLLNEDWEYYLSGKLFNKSKMKLTFEQVYSDCKKNRGTYGTLHLQNSFNISEHLNINEHTGSISSELESLKVNLNIFLLGAAGRKNLQDFAACGIDRMNYDSYLAQTGKSPAGVNLLSFAYDLEAKANSLPPGNLRNSLKRDAQTIKTIHQQRVLPIEQSLSTLYQSVKILQRTGNGLLERVTRILASLDFAQNFITNNTSSVIIEETKKYGRTIIGYFEHYLQWIEFSISEKVASCKPVATALDTAVDVFLCSYIIDPLNLFWFGIGKATVFLLPALIFAVKLAKYYRRMDSEDVYDDVETIPMKNMENGNNGYHKDHVYGIHNPVMTSPSQH
no change: localisation_or_trafficking [1] | expression_or_secretion [2] | localisation_or_trafficking [3]

B3: CD133 (prominin-1): N220Q (protein)
parent chain: MALVLGSLLLLGLCGNSFSGGQPSSTDAPKAWNYELPATNYETQDSHKAGPIGILFELVHIFLYVVQPRDFPEDTLRKFLQKAYESKIDYDKPETVILGLKIVYYEAGIILCCVLGLLFIILMPLVGYFFCMCRCCNKCGGEMHQRQKENGPFLRKCFAISLLVICIIISIGIFYGFVANHQVRTRIKRSRKLADSNFKDLRTLLNETPEQIKYILAQYNTTKDKAFTDLNSINSVLGGGILDRLRPNIIPVLDEIKSMATAIKETKEALENMNSTLKSLHQQSTQLSSSLTSVKTSLRSSLNDPLCLVHPSSETCNSIRLSLSQLNSNPELRQLPPVDAELDNVNNVLRTDLDGLVQQGYQSLNDIPDRVQRQTTTVVAGIKRVLNSIGSDIDNVTQRLPIQDILSAFSVYVNNTESYIHRNLPTLEEYDSYWWLGGLVICSLLTLIVIFYYLGLLCGVCGYDRHATPTTRGCVSNTGGVFLMVGVGLSFLFCWILMIIVVLTFVFGANVEKLICEPYTSKELFRVLDTPYLLNEDWEYYLSGKLFNKSKMKLTFEQVYSDCKKNRGTYGTLHLQNSFNISEHLNINEHTGSISSELESLKVNLNIFLLGAAGRKNLQDFAACGIDRMNYDSYLAQTGKSPAGVNLLSFAYDLEAKANSLPPGNLRNSLKRDAQTIKTIHQQRVLPIEQSLSTLYQSVKILQRTGNGLLERVTRILASLDFAQNFITNNTSSVIIEETKKYGRTIIGYFEHYLQWIEFSISEKVASCKPVATALDTAVDVFLCSYIIDPLNLFWFGIGKATVFLLPALIFAVKLAKYYRRMDSEDVYDDVETIPMKNMENGNNGYHKDHVYGIHNPVMTSPSQH
no change: localisation_or_trafficking [1] | expression_or_secretion [2] | localisation_or_trafficking [3]

B4: CD133 (prominin-1): N274Q (protein)
parent chain: MALVLGSLLLLGLCGNSFSGGQPSSTDAPKAWNYELPATNYETQDSHKAGPIGILFELVHIFLYVVQPRDFPEDTLRKFLQKAYESKIDYDKPETVILGLKIVYYEAGIILCCVLGLLFIILMPLVGYFFCMCRCCNKCGGEMHQRQKENGPFLRKCFAISLLVICIIISIGIFYGFVANHQVRTRIKRSRKLADSNFKDLRTLLNETPEQIKYILAQYNTTKDKAFTDLNSINSVLGGGILDRLRPNIIPVLDEIKSMATAIKETKEALENMNSTLKSLHQQSTQLSSSLTSVKTSLRSSLNDPLCLVHPSSETCNSIRLSLSQLNSNPELRQLPPVDAELDNVNNVLRTDLDGLVQQGYQSLNDIPDRVQRQTTTVVAGIKRVLNSIGSDIDNVTQRLPIQDILSAFSVYVNNTESYIHRNLPTLEEYDSYWWLGGLVICSLLTLIVIFYYLGLLCGVCGYDRHATPTTRGCVSNTGGVFLMVGVGLSFLFCWILMIIVVLTFVFGANVEKLICEPYTSKELFRVLDTPYLLNEDWEYYLSGKLFNKSKMKLTFEQVYSDCKKNRGTYGTLHLQNSFNISEHLNINEHTGSISSELESLKVNLNIFLLGAAGRKNLQDFAACGIDRMNYDSYLAQTGKSPAGVNLLSFAYDLEAKANSLPPGNLRNSLKRDAQTIKTIHQQRVLPIEQSLSTLYQSVKILQRTGNGLLERVTRILASLDFAQNFITNNTSSVIIEETKKYGRTIIGYFEHYLQWIEFSISEKVASCKPVATALDTAVDVFLCSYIIDPLNLFWFGIGKATVFLLPALIFAVKLAKYYRRMDSEDVYDDVETIPMKNMENGNNGYHKDHVYGIHNPVMTSPSQH
no change: localisation_or_trafficking [1] | expression_or_secretion [2] | localisation_or_trafficking [3]

B5: CD133 (prominin-1): N414Q (protein)
parent chain: MALVLGSLLLLGLCGNSFSGGQPSSTDAPKAWNYELPATNYETQDSHKAGPIGILFELVHIFLYVVQPRDFPEDTLRKFLQKAYESKIDYDKPETVILGLKIVYYEAGIILCCVLGLLFIILMPLVGYFFCMCRCCNKCGGEMHQRQKENGPFLRKCFAISLLVICIIISIGIFYGFVANHQVRTRIKRSRKLADSNFKDLRTLLNETPEQIKYILAQYNTTKDKAFTDLNSINSVLGGGILDRLRPNIIPVLDEIKSMATAIKETKEALENMNSTLKSLHQQSTQLSSSLTSVKTSLRSSLNDPLCLVHPSSETCNSIRLSLSQLNSNPELRQLPPVDAELDNVNNVLRTDLDGLVQQGYQSLNDIPDRVQRQTTTVVAGIKRVLNSIGSDIDNVTQRLPIQDILSAFSVYVNNTESYIHRNLPTLEEYDSYWWLGGLVICSLLTLIVIFYYLGLLCGVCGYDRHATPTTRGCVSNTGGVFLMVGVGLSFLFCWILMIIVVLTFVFGANVEKLICEPYTSKELFRVLDTPYLLNEDWEYYLSGKLFNKSKMKLTFEQVYSDCKKNRGTYGTLHLQNSFNISEHLNINEHTGSISSELESLKVNLNIFLLGAAGRKNLQDFAACGIDRMNYDSYLAQTGKSPAGVNLLSFAYDLEAKANSLPPGNLRNSLKRDAQTIKTIHQQRVLPIEQSLSTLYQSVKILQRTGNGLLERVTRILASLDFAQNFITNNTSSVIIEETKKYGRTIIGYFEHYLQWIEFSISEKVASCKPVATALDTAVDVFLCSYIIDPLNLFWFGIGKATVFLLPALIFAVKLAKYYRRMDSEDVYDDVETIPMKNMENGNNGYHKDHVYGIHNPVMTSPSQH
no change: localisation_or_trafficking [1] | expression_or_secretion [2] | localisation_or_trafficking [3]

B6: CD133 (prominin-1): N395Q (protein)
parent chain: MALVLGSLLLLGLCGNSFSGGQPSSTDAPKAWNYELPATNYETQDSHKAGPIGILFELVHIFLYVVQPRDFPEDTLRKFLQKAYESKIDYDKPETVILGLKIVYYEAGIILCCVLGLLFIILMPLVGYFFCMCRCCNKCGGEMHQRQKENGPFLRKCFAISLLVICIIISIGIFYGFVANHQVRTRIKRSRKLADSNFKDLRTLLNETPEQIKYILAQYNTTKDKAFTDLNSINSVLGGGILDRLRPNIIPVLDEIKSMATAIKETKEALENMNSTLKSLHQQSTQLSSSLTSVKTSLRSSLNDPLCLVHPSSETCNSIRLSLSQLNSNPELRQLPPVDAELDNVNNVLRTDLDGLVQQGYQSLNDIPDRVQRQTTTVVAGIKRVLNSIGSDIDNVTQRLPIQDILSAFSVYVNNTESYIHRNLPTLEEYDSYWWLGGLVICSLLTLIVIFYYLGLLCGVCGYDRHATPTTRGCVSNTGGVFLMVGVGLSFLFCWILMIIVVLTFVFGANVEKLICEPYTSKELFRVLDTPYLLNEDWEYYLSGKLFNKSKMKLTFEQVYSDCKKNRGTYGTLHLQNSFNISEHLNINEHTGSISSELESLKVNLNIFLLGAAGRKNLQDFAACGIDRMNYDSYLAQTGKSPAGVNLLSFAYDLEAKANSLPPGNLRNSLKRDAQTIKTIHQQRVLPIEQSLSTLYQSVKILQRTGNGLLERVTRILASLDFAQNFITNNTSSVIIEETKKYGRTIIGYFEHYLQWIEFSISEKVASCKPVATALDTAVDVFLCSYIIDPLNLFWFGIGKATVFLLPALIFAVKLAKYYRRMDSEDVYDDVETIPMKNMENGNNGYHKDHVYGIHNPVMTSPSQH
no change: localisation_or_trafficking [1] | expression_or_secretion [2] | localisation_or_trafficking [3]
